Measurements reported in patent US5912120A, “Cloning, expression and diagnosis of human cytochrome P450 2C19: the principal determinant of s-mephenytoin metabolism” (The United States of America as represented by the …, priority 1994, dated 1999).

Assay: Mephenytoin 4'-hydroxylase assay, purified recombinant P450 2C in reconstituted system (Table IV)
Type: biochemical
Details: for R/S Ratio: purified P450, reconstituted system
Procedure: Recombinant yeast microsomes were prepared from a 10-12 l culture, and recombinant P450s were purified by aminooctylsepharose chromatography as described by Iwasaki et al., J. Biol. Chem. 226:3380-3382 (1991). The Emulgen was then removed from protein by adsorption of the protein to a 4 g hydroxylapatite column (Hypatite C, Clarkson Chemical Company, Williamsport, Pa.) equilibrated with 10 mM potassium phosphate buffer (pH 7.2), 20% glycerol, 0.1 mM EDTA, and 0.1 mM DTT and washing the column with the same buffer until the absorbance at 280 nm returned to zero. The P450 was then eluted with […], and dialyzed overnight against 100 mM potassium phosphate buffer (pH 7.4, 20% glycerol and 0.1 mM EDTA. Absolute and CO difference spectra of purified P450s were determined in the same buffer but containing 0.2% Emulgen and 0.5% cholate.
Mephenytoin 4'-hydroxylase activity was measured by a modification of the radiometric HPLC assay described by Shimada et al., J. Biol. Chem. 261:909-921 (1986), as described below. Purified or recombinant yeast microsomes (10-50 pmol) were preincubated with dilauroylphosphatidylcholine (15 μg per 50 pmol P450), P450 reductase (500 U per […] P450), and human cytochrome b5 (2:1 molar ratio when added). The reconstituted mixture was preincubated for 5 min at 37° C., and then placed on ice. A final concentration of 0.4 mM radiolabelled S- or R-mephenytoin (20.7 mCi/mM and 20.9 mCi/mMol) was added to 50 mM HEPES buffer (pH 7.4) containing 0.1 mM EDTA and 1.5 mM MgCl2 for recombinant 2C proteins. The mixture was then incubated at 37° with shaking for 3 min, and the reaction started with the addition of 2mM NADPH and terminated after 30 min with an equal volume of methanol. Cytochrome b5 was not included in all CYP2C18 reactions, since it had no effect or produced a slight inhibition on the activity of this CYP protein. Reaction volumes were generally 0.25 ml except when the volume of recombinant purified cytochrome or yeast microsomes was greater than 50 μl. In these cases, the volume was increased to 0.5 ml to limit the volume of glycerol from the purified preparation to <4% of the final volume.
At the end of the incubation period, the reactions were terminated with an equal volume of methanol. The incubation mixture was centrifuged at 10,000 g for 10 min and an aliquot assayed directly using HPLC without extraction. Samples with particularly low activity were concentrated by lyophilization and redissolved in a small volume of methanol:water (1:1) before assay. The HPLC system consisted of a reverse phase C18 (10 μm) Versapak, 300 mm×4.1 mm column (Altech Associates, Deerfield, Ill.) using an isocratic solvent consisting of methanol:water (45:55) with a flow rate was kept of 1 ml/min for 25 min. Detection of radioactive peaks was accomplished using an on-line Flow-One radiochemical detector (Radiomatic Instruments Co., Tampa, Fla. Detection of the unlabeled 4'-hydroxymephenytoin authentic standard was performed using an on-line multiwavelength UV detector at both 211 and 230 nm.
Recombinant P450s were purified from yeast microsomes and assays performe

B1: 2C8 Purified from Human Liver: cytochrome P450 2C8 purified from human liver microsomes (protein, UniProt P10632 1-490, looked up)
Cytochrome P450 2C8: MEPFVVLVLCLSFMLLFSLWRQSCRRRKLPPGPTPLPIIGNMLQIDVKDICKSFTNFSKVYGPVFTVYFGMNPIVVFHGYEAVKEALIDNGEEFSGRGNSPISQRITKGLGIISSNGKRWKEIRRFSLTTLRNFGMGKRSIEDRVQEEAHCLVEELRKTKASPCDPTFILGCAPCNVICSVVFQKRFDYKDQNFLTLMKRFNENFRILNSPWIQVCNNFPLLIDCFPGTHNKVLKNVALTRSYIREKVKEHQASLDVNNPRDFIDCFLIKMEQEKDNQKSEFNIENLVGTVADLFVAGTETTSTTLRYGLLLLLKHPEVTAKVQEEIDHVIGRHRSPCMQDRSHMPYTDAVVHEIQRYSDLVPTGVPHAVTTDTKFRNYLIPKGTTIMALLTSVLHDDKEFPNPNIFDPGHFLDKNGNFKKSDYFMPFSAGKRICAGEGLARMELFLFLTTILQNFNLKSVDDLKNLNTTAVTKGIVSLPPSYQICFIPV
R/S Ratio: 1.6

B2: 2C9 Purified from Human Liver: cytochrome P450 2C9 purified from human liver microsomes (protein, UniProt P11712 1-490, looked up)
Cytochrome P450 2C9: MDSLVVLVLCLSCLLLLSLWRQSSGRGKLPPGPTPLPVIGNILQIGIKDISKSLTNLSKVYGPVFTLYFGLKPIVVLHGYEAVKEALIDLGEEFSGRGIFPLAERANRGFGIVFSNGKKWKEIRRFSLMTLRNFGMGKRSIEDRVQEEARCLVEELRKTKASPCDPTFILGCAPCNVICSIIFHKRFDYKDQQFLNLMEKLNENIKILSSPWIQICNNFSPIIDYFPGTHNKLLKNVAFMKSYILEKVKEHQESMDMNNPQDFIDCFLMKMEKEKHNQPSEFTIESLENTAVDLFGAGTETTSTTLRYALLLLLKHPEVTAKVQEEIERVIGRNRSPCMQDRSHMPYTDAVVHEVQRYIDLLPTSLPHAVTCDIKFRNYLIPKGTTILISLTSVLHDNKEFPNPEMFDPHHFLDEGGNFKKSKYFMPFSAGKRICVGEALAGMELFLFLTSILQNFNLKSLVDPKNLDTTPVVNGFASVPPFYQLCFIPV
R/S Ratio: 1.6

B3: 2C18: recombinant human cytochrome P450 2C18, variant not specified in the text (protein, UniProt P33260 26-490, looked up)
Cytochrome P450 2C18: RGRLPSGPTPLPIIGNILQLDVKDMSKSLTNFSKVYGPVFTVYFGLKPIVVLHGYEAVKEALIDHGEEFSGRGSFPVAEKVNKGLGILFSNGKRWKEIRRFCLMTLRNFGMGKRSIEDRVQEEARCLVEELRKTNASPCDPTFILGCAPCNVICSVIFHDRFDYKDQRFLNLMEKFNENLRILSSPWIQVCNNFPALIDYLPGSHNKIAENFAYIKSYVLERIKEHQESLDMNSARDFIDCFLIKMEQEKHNQQSEFTVESLIATVTDMFGAGTETTSTTLRYGLLLLLKYPEVTAKVQEEIECVVGRNRSPCMQDRSHMPYTDAVVHEIQRYIDLLPTNLPHAVTCDVKFKNYLIPKGTTIITSLTSVLHNDKEFPNPEMFDPGHFLDKSGNFKKSDYFMPFSAGKRMCMGEGLARMELFLFLTTILQNFNLKSQVDPKDIDITPIANAFGRVPPLYQLCFIPV
stereospecificity of 4'-hydroxylation of mephenytoin (purified, reconstituted system (Table IV)): stereoselective for the R-enantiomer
